Our source for the Kd values is patent US20240317847A1 (Bayer, published 2024).

In general, Kd refers to a measure of binding affinity in units of concentration.

The target of one assay is T1, murine IL-11 (mouse, UniProt P47873 22-199).
T1 construct: bought from Invigate; also called mIL-11; mIL11
T1 sequence: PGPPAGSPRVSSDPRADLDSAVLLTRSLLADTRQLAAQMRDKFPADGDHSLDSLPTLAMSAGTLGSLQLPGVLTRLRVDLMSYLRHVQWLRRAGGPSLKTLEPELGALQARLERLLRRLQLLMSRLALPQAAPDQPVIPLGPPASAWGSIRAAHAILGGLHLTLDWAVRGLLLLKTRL
Nature of the assay: SPR, antibody captured, IL-11 as analyte. How it is done:
(§1) Antibodies were captured via anti-mouse Fc IgGs (“Mouse antibody capture kit, Order No. BR100383, Cytiva) covalently amine coupled to a Series S CM5 sensor chip (Cytiva). The amine coupling was carried out according to the manufacturer's instructions using 1-ethyl-3-(3-dimethylaminopropyl) carbodiimide hydrochloride (EDC), N-hydroxysuccinimide (NHS) and ethanolamine HCl, pH 8.5 (“Amine Coupling Kit” BR-1000-50, Cytiva.). Human IL-11 (Invigate, e.g., lot #C121021-19), and murine IL-11 (Invigate, e.g., lot #C210819-09) were used as analytes. […] Based on that experiment an IL-11 concentration range was chosen to optimally determine kinetics and affinity of anti-IL-11 antibodies in multicycle kinetics mode. The sensor surface was regenerated with glycine pH 1.7 after each antigen injection. Obtained sensorgrams were double referenced (subtraction of reference flow cell signal and buffer injection) and were fitted to a 1:1 Langmuir binding model to derive kinetic data using the Biacore T200 Evaluation software or the Biacore Insight software.
(§2) 42 hits from the IL-11 and […] screening analysis were selected, expressed by transient transfection of mammalian cells and purified as described in Example 15. Antibodies were then tested for human IL-11 and murine IL-11 binding by SPR as described in Example 16.
Background: In SPR one partner is held on a chip, and binding of the other changes the refractive index at the surface.

The target in another assay is T2, human IL-11 (human, UniProt P20809 22-199).
T2 construct: bought from Invigate; also called hIL-11; hIL11
T2 sequence: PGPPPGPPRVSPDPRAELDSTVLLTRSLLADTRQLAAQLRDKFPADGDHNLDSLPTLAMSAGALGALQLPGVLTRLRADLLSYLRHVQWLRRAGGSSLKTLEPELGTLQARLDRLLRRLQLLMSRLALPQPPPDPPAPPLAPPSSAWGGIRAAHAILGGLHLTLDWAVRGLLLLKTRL
Nature of the assay: SPR, antibody captured, IL-11 as analyte. How it is done:
as §1, §2

B1: TPP-26299 (antibody, V domains shown)
VH: EVQLLESGGGLVQPGGSLRLSCAASGFTFSSYGMHWVRQAPGKGLEWVSVISYDGSYKYYADSVKGRFTISRDNSKNTLYLQMNSLRAEDTAVYYCAAGVPDYWGQGTLVTVSS
VL: QSVLTQPPSASGTPGQRVTISCTGSSSNIGAGYDVHWYQQLPGTAPKLLIYSNNERPSGVPDRFSGSKSGTSASLAISGLRSEDEADYYCAAWDDSLYGPVFGGGTKLTVL
notes: constant regions not restated
As to B1, the figures for the Kd with murine IL-11 and with human IL-11 were 0.63 nM and 11 nM, respectively.

B2: TPP-26306 (antibody, V domains shown)
VH: EVQLLESGGGLVQPGGSLRLSCAASGFTFSSYGMHWVRQAPGKGLEWVSVISYDGSYKYYADSVKGRFTISRDNSKNTLYLQMNSLRAEDTAVYYCAAGVPDYWGQGTLVTVSS
VL: QSVLTQPPSASGTPGQRVTISCTGSSSNIGAGYDVHWYQQLPGTAPKLLIYSNNERPSGVPDRFSGSKSGTSASLAISGLRSEDEADYYCAAWDQSLNGPVFGGGTKLTVL
notes: constant regions not restated
As to B2, the Kd with murine IL-11 came out at 0.65 nM; with human IL-11, 12 nM.

B3: TPP-26308 (antibody, V domains shown)
VH: EVQLLESGGGLVQPGGSLRLSCAASGFTFSSYGMHWVRQAPGKGLEWVSVISYDGSYKYYADSVKGRFTISRDNSKNTLYLQMNSLRAEDTAVYYCAAGVPDYWGQGTLVTVSS
VL: QSVLTQPPSASGTPGQRVTISCTGSSSNIGAGYDVHWYQQLPGTAPKLLIYSNNERPSGVPDRFSGSKSGTSASLAISGLRSEDEADYYCAAWDVSLNGPVFGGGTKLTVL
notes: constant regions not restated
Turning to B3, the Kd with murine IL-11 turned out to be 1.3 nM; with human IL-11 it was 17 nM.

B4: TPP-26313 (antibody, V domains shown)
VH: EVQLLESGGGLVQPGGSLRLSCAASGFTFSSYGMHWVRQAPGKGLEWVSVISYDGSYKYYADSVKGRFTISRDNSKNTLYLQMNSLRAEDTAVYYCAAGVPDYWGQGTLVTVSS
VL: QSVLTQPPSASGTPGQRVTISCTGSSSNIGAYYDVHWYQQLPGTAPKLLIYSNNERPSGVPDRFSGSKSGTSASLAISGLRSEDEADYYCAAWDDSLNGPVFGGGTKLTVL
notes: constant regions not restated
With B4, the Kd amounted to 0.46 nM with murine IL-11 and 9.1 nM with human IL-11.

B5: TPP-26317 (antibody, V domains shown)
VH: EVQLLESGGGLVQPGGSLRLSCAASGFTFSSYGMHWVRQAPGKGLEWVSVISYDGSYKYYADSVKGRFTISRDNSKNTLYLQMNSLRAEDTAVYYCAAGVPDYWGQGTLVTVSS
VL: QSVLTQPPSASGTPGQRVTISCTGSSSNIGAEYDVHWYQQLPGTAPKLLIYSNNERPSGVPDRFSGSKSGTSASLAISGLRSEDEADYYCAAWDDSLNGPVFGGGTKLTVL
notes: constant regions not restated
On to B5, for which the dissociation constant Kd was 0.9 nM with murine IL-11 and 8.1 nM in the assay with human IL-11.

B6: TPP-26314 (antibody, V domains shown)
VH: EVQLLESGGGLVQPGGSLRLSCAASGFTFSSYGMHWVRQAPGKGLEWVSVISYDGSYKYYADSVKGRFTISRDNSKNTLYLQMNSLRAEDTAVYYCAAGVPDYWGQGTLVTVSS
VL: QSVLTQPPSASGTPGQRVTISCTGSSSNIGAGYDVHWYQQLPGTAPKLLIYSNNERPSGVPDRFSGSKSGTSASLAISGLRSEDEADYYCAAWDWSLNGPVFGGGTKLTVL
notes: constant regions not restated
Turning to B6, the figures for the dissociation constant Kd in the assay with murine IL-11 and with human IL-11 were 0.56 nM and 8.3 nM, respectively.

B7: TPP-26300 (antibody, V domains shown)
VH: EVQLLESGGGLVQPGGSLRLSCAASGFTFSSYGMHWVRQAPGKGLEWVSVISYDGSYKYYADSVKGRFTISRDNSKNTLYLQMNSLRAEDTAVYYCAAGVPDYWGQGTLVTVSS
VL: QSVLTQPPSASGTPGQRVTISCTGSSSNIGAGYDVHWYQQLPGTAPKLLIYSNNERPSGVPDRFSGSKSGTSASLAISGLRSEDEADYYCAAWDSSLNGPVFGGGTKLTVL
notes: constant regions not restated
For B7, the results for the dissociation constant (Kd) in the assay with murine IL-11 and with human IL-11 were 0.45 nM and 9.2 nM, respectively.

B8: TPP-26304 (antibody, V domains shown)
VH: EVQLLESGGGLVQPGGSLRLSCAASGFTFSSYGMHWVRQAPGKGLEWVSVISYDGSYKYYADSVKGRFTISRDNSKNTLYLQMNSLRAEDTAVYYCAAGVPDYWGQGTLVTVSS
VL: QSVLTQPPSASGTPGQRVTISCTGSSSNIWAGYDVHWYQQLPGTAPKLLIYSNNERPSGVPDRFSGSKSGTSASLAISGLRSEDEADYYCAAWDDSLNGPVFGGGTKLTVL
notes: constant regions not restated
Turning to B8, the Kd with murine IL-11 was found to be 0.64 nM; with human IL-11, 12 nM.

B9: TPP-26318 (antibody, V domains shown)
VH: EVQLLESGGGLVQPGGSLRLSCAASGFTFSSYGMHWVRQAPGKGLEWVSVISYDGSYKYYADSVKGRFTISRDNSKNTLYLQMNSLRAEDTAVYYCAAGVPDYWGQGTLVTVSS
VL: QSVLTQPPSASGTPGQRVTISCTGSSSNIGAGYFVHWYQQLPGTAPKLLIYSNNERPSGVPDRFSGSKSGTSASLAISGLRSEDEADYYCAAWDDSLNGPVFGGGTKLTVL
notes: constant regions not restated
In the case of B9, the Kd is 8.1 nM in the assay with murine IL-11 and 14 nM with human IL-11.

B10: TPP-26307 (antibody, V domains shown)
VH: EVQLLESGGGLVQPGGSLRLSCAASGFTFSSYGMHWVRQAPGKGLEWVSVISYDGSYKYYADSVKGRFTISRDNSKNTLYLQMNSLRAEDTAVYYCAAGVPDYWGQGTLVTVSS
VL: QSVLTQPPSASGTPGQRVTISCTGSSSNIGAGYDVHWYQQLPGTAPKLLIYSNNERPSGVPDRFSGSKSGTSASLAISGLRSEDEADYYCAAWDISLNGPVFGGGTKLTVL
notes: constant regions not restated
On to B10, for which the results for the dissociation constant (Kd) in the assay with murine IL-11 and with human IL-11 were 1.6 nM and 16 nM, respectively.

B11: TPP-26312 (antibody, V domains shown)
VH: EVQLLESGGGLVQPGGSLRLSCAASGFTFSSYGMHWVRQAPGKGLEWVSVISYDGSYKYYADSVKGRFTISRDNSKNTLYLQMNSLRAEDTAVYYCAAGVPDYWGQGTLVTVSS
VL: QSVLTQPPSASGTPGQRVTISCTGSSSNIGAGLDVHWYQQLPGTAPKLLIYSNNERPSGVPDRFSGSKSGTSASLAISGLRSEDEADYYCAAWDDSLNGPVFGGGTKLTVL
notes: constant regions not restated
Regarding B11, the dissociation constant Kd was 0.8 nM with murine IL-11 and 10 nM with human IL-11.

B12: TPP-26316 (antibody, V domains shown)
VH: EVQLLESGGGLVQPGGSLRLSCAASGFTFSSYGMHWVRQAPGKGLEWVSVISYDGSYKYYADSVKGRFTISRDNSKNTLYLQMNSLRAEDTAVYYCAAGVPDYWGQGTLVTVSS
VL: QSVLTQPPSASGTPGQRVTISCTGSSSNIGAGYDVHWYQQLPGTAPKLLIYSNNERPSGVPDRFSGSKSGTSASLAISGLRSEDEADYYCAAWDMSLNGPVFGGGTKLTVL
notes: constant regions not restated
For the molecule B12, the figures for the equilibrium dissociation constant (Kd) with murine IL-11 and with human IL-11 were 0.72 nM and 8.4 nM, respectively.

B13: TPP-26302 (antibody, V domains shown)
VH: EVQLLESGGGLVQPGGSLRLSCAASGFTFSSYGMHWVRQAPGKGLEWVSVISYDGSYKYYADSVKGRFTISRDNSKNTLYLQMNSLRAEDTAVYYCAAGVPDYWGQGTLVTVSS
VL: QSVLTQPPSASGTPGQRVTISCTGSSSNIGAGYDVHWYQQLPGTAPKLLIYSNNERPSGVPDRFSGSKSGTSASLAISGLRSEDEADYYCSAWDDSLNGPVFGGGTKLTVL
notes: constant regions not restated
Turning to B13, the Kd stood at 0.7 nM in the assay with murine IL-11 and 13 nM with human IL-11.

B14: TPP-26315 (antibody, V domains shown)
VH: EVQLLESGGGLVQPGGSLRLSCAASGFTFSSYGMHWVRQAPGKGLEWVSVISYDGSYKYYADSVKGRFTISRDNSKNTLYLQMNSLRAEDTAVYYCAAGVPDYWGQGTLVTVSS
VL: QSVLTQPPSASGTPGQRVTISCTGSSSNIGAHYDVHWYQQLPGTAPKLLIYSNNERPSGVPDRFSGSKSGTSASLAISGLRSEDEADYYCAAWDDSLNGPVFGGGTKLTVL
notes: constant regions not restated
Turning to B14, the equilibrium dissociation constant (Kd) with murine IL-11 worked out at 0.95 nM; with human IL-11, 14 nM.

B15: TPP-26309 (antibody, V domains shown)
VH: EVQLLESGGGLVQPGGSLRLSCAASGFTFSSYGMHWVRQAPGKGLEWVSVISYDGSYKYYADSVKGRFTISRDNSKNTLYLQMNSLRAEDTAVYYCAAGVPDYWGQGTLVTVSS
VL: QSVLTQPPSASGTPGQRVTISCTGSSSNIGAGYDVHWYQQLPGTAPKLLIYSNNERPSGVPDRFSGSKSGTSASLAISGLRSEDEADYYCAAWDFSLNGPVFGGGTKLTVL
notes: constant regions not restated
On to B15, for which the values for the Kd with murine IL-11 and with human IL-11 were 0.8 nM and 8.2 nM, respectively.

B16: TPP-26303 (antibody, V domains shown)
VH: EVQLLESGGGLVQPGGSLRLSCAASGFTFSSYGMHWVRQAPGKGLEWVSVISYDGSYKYYADSVKGRFTISRDNSKNTLYLQMNSLRAEDTAVYYCAAGVPDYWGQGTLVTVSS
VL: QSVLTQPPSASGTPGQRVTISCTGSSSNIGAGYDVHWYQQLPGTAPKLLIYSNNERPEGVPDRFSGSKSGTSASLAISGLRSEDEADYYCAAWDDSLNGPVFGGGTKLTVL
notes: constant regions not restated
Consider B16, for which the values for the Kd in the assay with murine IL-11 and with human IL-11 were 0.65 nM and 13 nM, respectively.

B17: TPP-26310 (antibody, V domains shown)
VH: EVQLLESGGGLVQPGGSLRLSCAASGFTFSSYGMHWVRQAPGKGLEWVSVISYDGSYKYYADSVKGRFTISRDNSKNTLYLQMNSLRAEDTAVYYCAAGVPDYWGQGTLVTVSS
VL: QSVLTQPPSASGTPGQRVTISCTGSSSNIGAGYDVHWYQQLPGTAPKLLIYSNNERPWGVPDRFSGSKSGTSASLAISGLRSEDEADYYCAAWDDSLNGPVFGGGTKLTVL
notes: constant regions not restated
Consider B17, for which the equilibrium dissociation constant (Kd) with murine IL-11 turned out to be 0.66 nM; with human IL-11, 13 nM.
